Test results as given in PMC7423246, “A Peptide–Lectin Fusion Strategy for Developing a Glycan Probe for Use in Various Assay Formats” (Chemosensors (Basel, Switzerland), 2019).

Target: soy bean agglutinin conjugated to HRP (soy bean), P05046
Experiment: ELISA; soy bean agglutinin conjugated to HRP exposed to serial dilutions of PFA; colorimetric signal with TMB

Chain of soy bean agglutinin conjugated to HRP (soy bean), P05046 (P05046 33-285): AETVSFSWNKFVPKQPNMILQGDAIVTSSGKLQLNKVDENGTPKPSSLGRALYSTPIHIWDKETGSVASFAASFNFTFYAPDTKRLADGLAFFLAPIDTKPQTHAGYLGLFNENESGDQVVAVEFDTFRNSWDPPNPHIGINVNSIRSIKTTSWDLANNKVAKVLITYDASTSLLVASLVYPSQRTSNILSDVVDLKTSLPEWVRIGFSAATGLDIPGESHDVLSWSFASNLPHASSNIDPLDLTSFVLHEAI

B1: Pseudomonas fluorescens agglutinin (PFA) (natural protein)
chain: MSKYAVANQWGGSSAPWHPGGTWVLGARDNQNVVAIEIKSGDGGKSFTGTMTYAGEGPIGFKAQRTGQNQYNVENQWGGNDAPWHPGGKWVIGGRDNQNVIALSVTSSDGGKNLSGTNTYANEGPIGFRGQIEVSHPQAPF
modifications: not checked
Kd: 4 nM
